Article doi:10.1101/2024.09.19.613822

Target: His-tagged proaerolysin (Aeromonas hydrophila) (UniProt P09167)
Experiment: SEC

His-tagged proaerolysin (from UniProt P09167 24-445) (natural protein)
stoichiometry N: 2
